{"source": "patent KR20200019669A", "about": "(dated 2020)", "binders": {"B1": {"name": "aCD38-b-329 (antibody, human IgG1, V domains shown)", "VH": "QLQLQESGPGLVKPSETLSLTCTVSGGSISSSDYYWGWIRQPPGKGLEWIGSIYYSGSTYYNPSLKSRVTISVDTSKNQFSLKLSSVTAADTAVYYCARGQYSSGWYAYPFDMWGQGTMVTVSS", "VL": "EIVLTQSPGTLSLSPGERATLSCRASQSVRSSYLAWYQQKPGQAPRLLIYGASSRATGIPDRFSGSGSGTDFTLTISRLEPEDFAVYYCQQDGAVFTFGGGTKVEIK", "notes": "Human IgG1 with kappa constant region (P01857, P01834)"}}, "molecular_target": "T1, his 태그가 부착된 재조합 인간 CD38 (recombinant human CD38 extracellular domain, His-tagged) (human, UniProt P28907 43-300, biotinylated in part of the ForteBio assays (EZ-Link sulfo-NHS biotinylation))", "T1 construct": "Bought from Sino Biological; also called rhCD38; rhCD38-his; not shown: histidine tag", "T1 sequence": "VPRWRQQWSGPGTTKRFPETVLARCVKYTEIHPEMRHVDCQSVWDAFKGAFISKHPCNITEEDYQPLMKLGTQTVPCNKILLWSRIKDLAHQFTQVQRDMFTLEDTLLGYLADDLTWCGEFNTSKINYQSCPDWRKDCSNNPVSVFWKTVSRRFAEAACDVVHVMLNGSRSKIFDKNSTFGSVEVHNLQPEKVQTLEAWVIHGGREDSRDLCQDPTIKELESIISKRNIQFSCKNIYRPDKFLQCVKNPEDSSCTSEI", "assay": "affinity on recombinant human CD38 extracellular domain (Octet/Biacore); order of magnitude told in text"}
{"binder": "B1", "values": [{"measurement": "Kd", "value": "~1", "unit": "nM"}]}
